T1: His-FLP (FOUR LIPS) (Arabidopsis thaliana, UniProt Q94FL6 1-436)
T1 sequence: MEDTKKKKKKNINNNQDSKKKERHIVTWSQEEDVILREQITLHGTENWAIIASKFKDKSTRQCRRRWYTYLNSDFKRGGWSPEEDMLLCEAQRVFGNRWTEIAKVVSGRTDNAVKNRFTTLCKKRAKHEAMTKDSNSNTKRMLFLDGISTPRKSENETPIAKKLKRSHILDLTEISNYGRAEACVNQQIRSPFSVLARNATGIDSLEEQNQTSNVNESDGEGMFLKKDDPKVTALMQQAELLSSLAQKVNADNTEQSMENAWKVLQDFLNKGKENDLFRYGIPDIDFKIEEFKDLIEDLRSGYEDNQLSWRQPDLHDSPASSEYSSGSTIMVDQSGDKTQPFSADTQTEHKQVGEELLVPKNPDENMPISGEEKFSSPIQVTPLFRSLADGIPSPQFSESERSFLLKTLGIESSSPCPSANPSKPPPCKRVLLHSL

T2: His-MYB88 (Arabidopsis thaliana, UniProt F4IRB4 1-484)
T2 sequence: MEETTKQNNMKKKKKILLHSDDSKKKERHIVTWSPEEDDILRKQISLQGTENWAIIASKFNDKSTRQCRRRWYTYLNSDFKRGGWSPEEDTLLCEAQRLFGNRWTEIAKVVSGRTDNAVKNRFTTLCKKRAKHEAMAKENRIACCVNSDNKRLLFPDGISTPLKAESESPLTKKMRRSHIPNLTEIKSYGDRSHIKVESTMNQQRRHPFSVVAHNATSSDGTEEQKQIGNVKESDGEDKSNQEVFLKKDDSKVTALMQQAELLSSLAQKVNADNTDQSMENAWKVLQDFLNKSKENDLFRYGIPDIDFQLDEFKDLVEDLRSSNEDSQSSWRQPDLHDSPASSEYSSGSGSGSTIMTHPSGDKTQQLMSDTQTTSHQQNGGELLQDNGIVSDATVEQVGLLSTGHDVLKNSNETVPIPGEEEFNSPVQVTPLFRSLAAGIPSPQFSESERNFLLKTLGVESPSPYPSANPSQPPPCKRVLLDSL

B1: pCDKA-B (element B) (dsDNA)
DNA 1: CTTGACACAAAAAAAAAAAAAGAAGAAAGAAAAAACCCTTACTCTCAATTAGTCAATCC
DNA 2: GGATTGACTAATTGAGAGTAAGGGTTTTTTCTTTCTTCTTTTTTTTTTTTTGTGTCAAG
B2: pCDKA-C+D (elements C and D) (dsDNA)
DNA 1: TTACTCTCAATTAGTCAATCCCCTTCCCTAGTCCTCCTCTCTTCAAGCTTTTCACAGAA
DNA 2: TTCTGTGAAAAGCTTGAAGAGAGGAGGACTAGGGAAGGGGATTGACTAATTGAGAGTAA
B3: pCDKA-A (element A) (dsDNA)
DNA 1: TAATAAATAAAATTGTACCAAATTAATGCGGTTAGGTAAATTCAATTTATTGGAAATTA
DNA 2: TAATTTCCAATAAATTGAATTTACCTAACCGCATTAATTTGGTACAATTTTATTTATTA

Biological target: T1, His-FLP (FOUR LIPS)
Assay: EMSA; EMSA: 1x LightShift binding buffer, 2.5% glycerol, 50 mM KCl, 5 mM MgCl2, 0.05% NP-40, 10 mM EDTA, room temperature 20 min; pH not stated
Conditions: protein: recombinant; tags: His (pET-28a); label: 3' biotin; blunt

Binding result, binds:
B1, B2, B3

Biological target: T2, His-MYB88
Assay: as above
Conditions: protein: recombinant; tags: His (pET-28a); label: 3' biotin; blunt

Binding result, binds:
B1, B2, B3

Reference: PMC4036514, “Requirement for A-type cyclin-dependent kinase and cyclins for the terminal division in the stomatal lineage of Arabidopsis”
